Assay results reported in US20180155402A1 (Molecular Partners, published 2018).
Blank lines part the entries; values can stand above or below the binder they belong to.

Assays:
human HER2 [1] = biological target: T1, human HER2 (human, UniProt P04626 23-652, limits assumed); test: SPR
T1 construct: This is HER2 as used in the surface plasmon resonance experiments; also called ErbB2; Human Epidermal Growth Factor Receptor 2

[2] = biological target: T2, extracellular domain of EGFR (UniProt P00533 25-645); test: surface plasmon resonance
T2 construct: extracellular domain; also called ErbB1; HER1

[3] = biological target: T3, extracellular domain of HER3 (UniProt P21860 20-643); test: surface plasmon resonance
T3 construct: extracellular domain; also called ErbB3

human serum albumin [4] = biological target: T4, human serum albumin (human, UniProt P02768 25-609); test: SPR; Protein #21 at 100 nM
T4 construct: also called HSA

HER2 on BT474 cells [5] = biological target: T5, HER2 on BT474 cells (human, UniProt P04626 23-1255); test: cell-based or functional assay
HER2 on BT474 cells [6] = biological target: T5, HER2 on BT474 cells; test: cell-based or functional assay; remark: listed apart in the source
human HER2 [7] = biological target: T1, human HER2; test: SPR, global fit over several concentrations; Protein #21-His
Description: (§1) Its affinity to HER2 was assessed by surface plasmon resonance as described in WO2014/083208.

human HER2 [8] = biological target: T1, human HER2; test: SPR, global fit over several concentrations; Protein #23-His
Description: as §1

[9] = biological target: cynomolgus monkey serum albumin (cynomolgus monkey, UniProt A2V9Z4 25-608); test: ProteOn SPR, PBS pH 7.4
mouse serum albumin = mouse serum albumin (mouse, UniProt P07724 25-608); test: ProteOn SPR, PBS pH 7.4
human serum albumin [10] = biological target: T4, human serum albumin; test: ProteOn SPR, PBS pH 7.4

Sequence of mouse serum albumin (P07724 25-608 limits assumed): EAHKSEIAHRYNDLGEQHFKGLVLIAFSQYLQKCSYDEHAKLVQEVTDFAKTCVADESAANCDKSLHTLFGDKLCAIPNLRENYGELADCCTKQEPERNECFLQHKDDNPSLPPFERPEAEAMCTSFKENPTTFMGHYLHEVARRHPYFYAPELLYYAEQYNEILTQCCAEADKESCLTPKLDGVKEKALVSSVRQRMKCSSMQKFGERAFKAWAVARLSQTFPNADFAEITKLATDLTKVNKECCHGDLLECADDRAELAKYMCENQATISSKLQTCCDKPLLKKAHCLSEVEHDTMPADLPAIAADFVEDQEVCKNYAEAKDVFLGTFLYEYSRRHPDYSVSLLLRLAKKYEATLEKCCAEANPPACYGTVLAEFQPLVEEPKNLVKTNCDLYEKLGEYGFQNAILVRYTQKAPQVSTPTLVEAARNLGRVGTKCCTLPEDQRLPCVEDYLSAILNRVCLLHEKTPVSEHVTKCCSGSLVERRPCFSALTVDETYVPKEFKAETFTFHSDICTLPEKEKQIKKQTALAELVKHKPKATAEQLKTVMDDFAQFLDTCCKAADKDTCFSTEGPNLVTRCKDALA
Sequence of cynomolgus monkey serum albumin (A2V9Z4 25-608 limits assumed): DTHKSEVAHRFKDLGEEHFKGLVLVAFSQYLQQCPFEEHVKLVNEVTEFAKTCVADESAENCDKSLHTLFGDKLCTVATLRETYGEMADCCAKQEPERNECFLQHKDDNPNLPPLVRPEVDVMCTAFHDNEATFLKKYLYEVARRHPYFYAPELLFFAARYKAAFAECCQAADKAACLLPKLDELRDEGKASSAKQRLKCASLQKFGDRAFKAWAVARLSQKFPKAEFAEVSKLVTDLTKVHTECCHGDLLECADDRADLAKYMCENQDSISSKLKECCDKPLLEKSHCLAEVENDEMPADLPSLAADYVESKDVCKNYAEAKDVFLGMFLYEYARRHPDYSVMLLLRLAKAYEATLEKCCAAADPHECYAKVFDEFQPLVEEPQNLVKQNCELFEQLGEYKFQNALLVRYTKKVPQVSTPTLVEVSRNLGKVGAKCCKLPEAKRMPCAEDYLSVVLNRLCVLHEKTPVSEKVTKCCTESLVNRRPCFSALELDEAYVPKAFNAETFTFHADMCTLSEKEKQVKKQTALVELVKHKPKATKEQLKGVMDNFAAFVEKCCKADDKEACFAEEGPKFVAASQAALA

Kd (human HER2 [1]): 0.152 nM
B1: Protein #17-His (designed binder)
chain: MRGSHHHHHHGSDLGKKLLEAARAGQDDEVRELLKAGADVNAKDEYGLTPLYLATAHGHLEIVEVLLKAGADVNAVDAIGFTPLHLAAFIGHLEIAEVLLKAGADVNAQDKFGKTPADIAAGAGNEDIAEVLQKAA

binding result [2]: no binding
binding result [3]: no binding
Kd (human serum albumin [4]): 21 nM
EC50, induction of apoptosis in BT474 cells (Caspase 3/7 activation) (HER2 on BT474 cells [5]): 2.4 nM
phosphorylation AKT S124, fold change to PBS (mass spectrometry) (HER2 on BT474 cells [6]): 0.99 fold change to PBS
phosphorylation AKT S129, fold change to PBS (mass spectrometry) (HER2 on BT474 cells [6]): 0.93 fold change to PBS
phosphorylation RAF S642, fold change to PBS (mass spectrometry) (HER2 on BT474 cells [6]): 0.81 fold change to PBS
phosphorylation RAF T631/T638/T640/T641/S642, fold change to PBS (mass spectrometry) (HER2 on BT474 cells [6]): 0.48 fold change to PBS
phosphorylation RPS6KB1/S6Kinase S441/T444/S447, fold change to PBS (mass spectrometry) (HER2 on BT474 cells [6]): 0.63 fold change to PBS
phosphorylation RPS6KB1/S6Kinase T444/S447, fold change to PBS (mass spectrometry) (HER2 on BT474 cells [6]): 0.92 fold change to PBS
phosphorylation mTOR S2448/S2454, fold change to PBS (mass spectrometry) (HER2 on BT474 cells [6]): 0.79 fold change to PBS
B2: Protein #21 (designed binder)
chain: GSDLGKKLLEAARAGQDDEVRELLKAGADVNAKDYFSHTPLHLAARNGHLKIVEVLLKAGADVNAKDFAGKTPLHLAANEGHLEIVEVLLKAGADVNAQDIFGKTPADIAADAGHEDIAEVLQKAAGSPTPTPTTPTPTPTTPTPTPTGSDLGIKLLFAAAKGQDDEVRELLKAGADVNAKDFQGVTPLHIAAQSGHLEIVEVLLKAGADVNAKDVTGDTPLHLAAQHGHLEIVEVLLKAGADVNAQDERGWTPADLAADWGHEDIAEVLQKAAGSPTPTPTTPTPTPTTPTPTPTGSDLGKKLLEAARAGQDDEVRELLKAGADVNAKDEYGLTPLYLATAHGHLEIVEVLLKAGADVNAVDAIGFTPLHLAAFIGHLEIAEVLLKAGADVNAQDKFGKTPADIAAGAGNEDIAEVLQKAAGSPTPTPTTPTPTPTTPTPTPTGSDLGKKLLEAARAGQDDEVRELLKAGADVNAKDYFSHTPLHLAARNGHLKIVEVLLKAGADVNAKDFAGKTPLHLAANEGHLEIVEVLLKAGADVNAQDIFGKTPADIAADAGHEDIAEVLQKAA
notes: Untagged

Kd (human HER2 [7]): 0.027 nM
IC50, inhibition of BT474 cell proliferation (BrdU) (HER2 on BT474 cells [5]): 1.5 nM
B3: Protein #21-His (designed binder)
chain: MRGSHHHHHHGSDLGKKLLEAARAGQDDEVRELLKAGADVNAKDYFSHTPLHLAARNGHLKIVEVLLKAGADVNAKDFAGKTPLHLAANEGHLEIVEVLLKAGADVNAQDIFGKTPADIAADAGHEDIAEVLQKAAGSPTPTPTTPTPTPTTPTPTPTGSDLGIKLLFAAAKGQDDEVRELLKAGADVNAKDFQGVTPLHIAAQSGHLEIVEVLLKAGADVNAKDVTGDTPLHLAAQHGHLEIVEVLLKAGADVNAQDERGWTPADLAADWGHEDIAEVLQKAAGSPTPTPTTPTPTPTTPTPTPTGSDLGKKLLEAARAGQDDEVRELLKAGADVNAKDEYGLTPLYLATAHGHLEIVEVLLKAGADVNAVDAIGFTPLHLAAFIGHLEIAEVLLKAGADVNAQDKFGKTPADIAAGAGNEDIAEVLQKAAGSPTPTPTTPTPTPTTPTPTPTGSDLGKKLLEAARAGQDDEVRELLKAGADVNAKDYFSHTPLHLAARNGHLKIVEVLLKAGADVNAKDFAGKTPLHLAANEGHLEIVEVLLKAGADVNAQDIFGKTPADIAADAGHEDIAEVLQKAA
notes: also called Protein #31-His

Kd (human HER2 [8]): 0.064 nM
IC50, inhibition of BT474 cell proliferation (BrdU) (HER2 on BT474 cells [5]): 2.4 nM
B4: Protein #23-His (designed binder)
chain: MRGSHHHHHHGSDLGKKLLEAARAGQDDEVRELLKAGADVNAKDYFSHTPLHLAARNGHLKIVEVLLKAGADVNAKDFAGKTPLHLAANEGHLEIVEVLLKAGADVNAQDIFGKTPADIAADAGHEDIAEVLQKAAGSPTPTPTTPTPTPTTPTPTPTGSDLGVKLLWAAARGQDDEVRELLKAGADVNAKDFQGITPLHIAATNGHLEIVEVLLKAGADVNAKDITGETPLHHAADSGHLEIVEVLLKAGADVNAQDKAGVTPADLAAAWGHEDIAEVLQKAAGSPTPTPTTPTPTPTTPTPTPTGSDLGKKLLEAARAGQDDEVRELLKAGADVNAKDEYGLTPLYLATAHGHLEIVEVLLKAGADVNAVDAIGFTPLHLAAFIGHLEIAEVLLKAGADVNAQDKFGKTPADIAAGAGNEDIAEVLQKAAGSPTPTPTTPTPTPTTPTPTPTGSDLGKKLLEAARAGQDDEVRELLKAGADVNAKDYFSHTPLHLAARNGHLKIVEVLLKAGADVNAKDFAGKTPLHLAANEGHLEIVEVLLKAGADVNAQDIFGKTPADIAADAGHEDIAEVLQKAA

Kd [9]: < 100 nM
Kd (mouse serum albumin): < 100 nM
Kd (human serum albumin [10]): < 100 nM
B5: Protein #14-His (designed binder)
chain: MRGSHHHHHHGSDLGKKLLEAARAGQDDEVRELLKAGADVNAKDYFSHTPLHLAARNGHLKIVEVLLKAGADVNAKDFAGKTPLHLAANEGHLEIVEVLLKAGADVNAQDIFGKTPADIAADAGHEDIAEVLQKAA

Kd [9]: < 100 nM
Kd (mouse serum albumin): < 100 nM
Kd (human serum albumin [10]): < 100 nM
B6: Protein #13-His (designed binder)
chain: MRGSHHHHHHGSDLGKKLLEAARAGQDDEVRELLKAGADVNAKDYFSHTPLHLAARNGHLKIVEVLLKAGADVNAKDFAGKTPLHLAANDGHLEIVEVLLKAGADVNAQDIFGKTPADIAADAGHEDIAEVLQKAA

Kd (human HER2 [1]): 0.009 nM
B7: Protein #16-His (designed binder)
chain: MRGSHHHHHHGSDLGIKLLFAAAKGQDDEVRELLKAGADVNAKDFQGVTPLHIAAQSGHLEIVEVLLKAGADVNAKDVTGDTPLHLAAQHGHLEIVEVLLKAGADVNAQDERGWTPADLAADWGHEDIAEVLQKAA
